T1: S100A1 (Homo sapiens), P23297
T1 chain: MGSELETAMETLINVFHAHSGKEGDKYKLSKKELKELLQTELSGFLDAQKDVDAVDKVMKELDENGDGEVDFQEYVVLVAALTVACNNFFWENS


Target: T1, S100A1 (Homo sapiens), P23297
Assay: steady-state fluorescence anisotropy
Conditions: modification not given

| Binder | Kd |
| --- | --- |
| LIGRAYRSNYTAAHFR [TRPM6np K532A/R531A 520-535, Q9BX84] | 50.2 µM |
| LIGRAYRSNYTRAHFR [TRPM6np K532A 520-535, Q9BX84] | 24.8 µM |

The remaining lines, values ahead:

| Kd | Binder |
| --- | --- |
| 130 µM | LIGRAYASNYTAAHFA [TRPM6np K532A/R531A/R535A/R526A 520-535, Q9BX84] |
| 81.8 µM | LIGRAYRSNYTAAHFA [TRPM6np K532A/R531A/R535A 520-535, Q9BX84] |
